This is an account of results in paper doi:10.1101/271593 (bioRxiv, 2018).

Data set [1] deals with the molecule itself. As to the kind of experiment: crystal structure.
Data set [2] concerns the molecule itself. Description: native MS.

B1: HsMTHFR_(38-644) (domain or fragment)
chain: not shown
For the protein B1, in data set [1], the stoichiometry N (in general, a count of units in the complex or per binding partner) worked out at 2.

B2: HsMTHFR_(1-656) treated with calf intestine alkaline phosphatase (dephosphorylated) (enzyme)
chain: not shown
Turning to B2, the “stoichiometry N” value in data set [2] was determined as 2.
